The values that follow come from paper PMC10767740.

The test system of one data set is TDP-43 monomer (TDP-M). In words: SPR. The following applies: protein immobilized on CM5; SPR Biacore 8K, CM5 chip, protein amine-coupled (30 ug/mL in NaAc pH 4.0); TG12 7.8-8000 nM in 1x PBS + 0.02% Tween-20; 120 s association and dissociation; 1:1 …. In general terms: SPR reads the build-up and loss of mass on a sensor chip optically.
In data set [1] the test system is TDP-43 native oligomer (NA-O). In words: SPR. The following applies: protein immobilized on CM5, SPR Biacore 8K, CM5 chip, protein amine-coupled (30 ug/mL in NaAc pH 4.0), TG12 7.8-8000 nM in 1x PBS + 0.02% Tween-20, 120 s association and dissociation, 1:1 ….

Sequence of TDP-43 monomer (TDP-M) (chain, as listed by the source): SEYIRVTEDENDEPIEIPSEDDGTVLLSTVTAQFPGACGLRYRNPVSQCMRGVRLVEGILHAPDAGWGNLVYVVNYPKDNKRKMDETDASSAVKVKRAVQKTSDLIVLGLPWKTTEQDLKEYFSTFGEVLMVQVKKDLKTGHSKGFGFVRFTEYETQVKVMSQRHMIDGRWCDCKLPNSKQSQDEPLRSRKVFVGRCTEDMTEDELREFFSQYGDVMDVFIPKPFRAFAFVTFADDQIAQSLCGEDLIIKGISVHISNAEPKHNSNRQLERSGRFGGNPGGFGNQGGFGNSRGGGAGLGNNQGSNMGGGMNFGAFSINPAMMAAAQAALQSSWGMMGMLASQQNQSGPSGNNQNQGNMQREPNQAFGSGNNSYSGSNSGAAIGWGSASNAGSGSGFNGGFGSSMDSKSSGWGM

In general, Kd refers to a measure of binding affinity in units of concentration. Turning to TG12, the Kd in the data set on TDP-43 monomer (TDP-M) was found to be 155 nM; in data set [1] it was 125 nM.
